Assay results reported in article PMC10927774, “Mechanistic and biophysical characterization of polymyxin resistance response regulator PmrA in Acinetobacter baumannii” (Frontiers in Microbiology, 2024).

Biological target: the molecule itself
Test: SEC; full-length PmrA incubated with BeF3- and Mg2+ (5.3 mM BeSO4, 35 mM NaF, 7 mM MgCl2) to mimic phosphorylation; 25 mM Tris pH 8.0, 150 mM NaCl, 5% glycerol

B1: Acinetobacter baumannii PmrA full length (natural protein)
chain: MTKILMIEDDFMIAESTITLLQYHQFEVEWVNNGLDGLAQLAKTKFDLILLDLGLPMMDGMQVLKQIRQRAATPVLIISARDQLQNRVDGLNLGADDYLIKPYEFDELLARIHALLRRSGVEAQLASQDQLLESGDLVLNVEQHIATFKGQRIDLSNREWAILIPLMTHPNKIFSKANLEDKLYDFDSDVTSNTIEVYVHHLRAKLGKDFIRTIRGLGYRLGQS
notes: Response regulator PmrA of A. baumannii, UniProt E2FGC2; full length, printed as residues 1–244 in the methods, while the introduction places the DBD at 129–223; Cloned in pET28a; In one SEC run it was incubated with BeF3- and Mg2+ (aspartate phosphorylation mimic); this is treated as a condition of the assay, not as another molecule; also called PmrA FL; full-length PmrA; source: E. coli BL21 …
In the case of B1, the “stoichiometry N” value is reported as 2.
